Data as given in publication PMC4138198.

How the values were obtained:
[1] = biological target: Pmr (plasmid pCAR1 (isolated originally from P. resinovorans CA10)); experiment: SPR; Biacore 2000, biotinylated Pmr, TurA or TurB (about 500 RU) immobilised on streptavidin chip SA, Pmr as analyte at lower concentrations; 4°C, 20 mM Tris-HCl pH 7.5, 0.5 M NaCl, 5% glycerol, 475 mM imidazole, 30 ul/min; Req divided by the immobilised amount
TurA (P. putida KT2440) = experiment: as above
[2] = biological target: Pmr (plasmid pCAR1 (isolated originally from P. resinovorans CA10)); experiment: SEC; 1 ml of purified protein at 140 uM on HiLoad 16/60 Superdex 200 prep grade in buffer B (20 mM Tris-HCl pH 7.5, 4°C, 0.5 M NaCl, 10% glycerol, 0.5 M imidazole); fractions checked by Tricine-SDS-PAGE and anti-His Western blot
[3] = biological target: Pmr-R8A (plasmid pCAR1 (isolated originally from P. resinovorans CA10)); experiment: as above

| binding amount of APmr per ligand homodimer, relative to LTurB-APmr [1] [fold] | binding amount of APmr per ligand homodimer, relative to LTurB-APmr (TurA (P. putida KT2440)) [fold] | stoichiometry N [2] | stoichiometry N [3] | Substance |
| --- | --- | --- | --- | --- |
| 2 | 2 | 35 -mer |  | Pmr (natural protein) |
|  |  |  | 6 -mer | Pmr-R8A (natural protein) |
